Target: SARS-CoV-2 spike (S) glycoprotein, wild-type, on pseudotyped virus (SARS-CoV-2) (UniProt P0DTC2)
Assay: cell-based or functional assay

JS016 (antibody), sequence (VH): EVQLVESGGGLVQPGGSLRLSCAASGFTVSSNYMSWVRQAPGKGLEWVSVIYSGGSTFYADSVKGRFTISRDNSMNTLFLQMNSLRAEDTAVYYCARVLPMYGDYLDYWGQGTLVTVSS
JS016 (antibody), sequence (VL): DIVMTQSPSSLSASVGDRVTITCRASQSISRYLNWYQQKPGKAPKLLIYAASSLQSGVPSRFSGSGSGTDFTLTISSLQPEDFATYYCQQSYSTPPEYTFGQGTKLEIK

JS016 (antibody) showed an IC50, pseudovirus neutralization study against wild-type SARS-CoV-2 of 0.0631 µg/mL.

From US20230399385A1
